Consider 3 substances from doi:10.1101/2022.05.13.491786.

Test [1] has as its target inactive human 80S ribosome (human (endogenous in MCF7)) (UniProt P18124). Briefly: cryo-EM structure.
Test [2] addresses large 60S ribosomal subunit (human (endogenous in MCF7)) (UniProt P30050). Briefly: co-sedimentation.
Test [3] shares this target. Briefly: cryo-EM structure.

In test [1], “LYAR (from UniProt Q9NX58 1-379) (natural protein)” came in with a percent of 80S ribosomes with LYAR (arsenite-treated cells) of 15.5% and a percent of 80S ribosomes with LYAR (untreated cells) of 13.2%.

In test [2], “eIF6 (from UniProt P56537 1-245) (natural protein)” registered a stoichiometry N (eIF6 : large subunit proteins) of 1. In test [3], this substance displayed a percent of 60S subunits with eIF6 (untreated cells) of 30%.

In test [1], “IFRD2 (from UniProt Q12894 1-442) (natural protein)” came in with a percent of 80S ribosomes with IFRD2 (arsenite-treated cells) of 13% and a percent of 80S ribosomes with IFRD2 (untreated cells) of 16.9%.
